Measurements taken from patent US20040121410A1, “Pain signaling molecules” (priority 2002, published 2004).

How the values were obtained:
[1] = target: MrgC11-GFP (mouse) [GFP: P42212]; assay: cell-based or functional assay
MrgA1-GFP (mouse) = MrgA1-GFP (mouse) (UniProt Q91WW5); assay: cell-based or functional assay

| EC50 of calcium mobilization (FLEXstation assay) [1] [nM] | EC50 of calcium mobilization (FLEXstation assay) (MrgA1-GFP (mouse)) [nM] | Substance | further results |
| --- | --- | --- | --- |
| 300 | > 10000 | BAM3200 (peptide) |  |
| 479 | 8770 | BAM-15-amide (peptide) | fold change of agonist activity against BAM-15 [1]: 9 fold; fold change of agonist activity against BAM-15 (MrgA1-GFP (mouse)): 2.7 fold |
| 22 |  | Dynnorphin-14 (peptide) |  |
| 53 | 23300 | BAM-15 (peptide) |  |
| 282 |  | NPAF (peptide) |  |
| 133 | 5250 | Met-ENK-RFamide (peptide) |  |
|  |  | R-Fa (peptide) | EC50 of calcium mobilization (HEK-MrgC11 cells) [1]: 460 nM |
| 17 |  | γ1-MSH (peptide) |  |
| 50 |  | Kiss(112-121) (peptide) |  |
| 54 | 2140 | NPFF (peptide) |  |
| 102 |  | Kiss(107-121) (peptide) |  |
|  |  | (D)F-M-R-Fa (peptide) | EC50 of calcium mobilization (HEK-MrgC11 cells) [1]: 108 nM; EC50 of calcium mobilization (HEK-MrgA1 cells) (MrgA1-GFP (mouse)): 882 nM |
| 545 |  | Met-Enk-RF (peptide) | fold change of agonist activity against the amidated peptide [1]: 4 to 5 fold |
| 26 | 2540 | BAM-22P (peptide) |  |
| 126 | > 10000 | PQRF-amide (peptide) |  |
| 114 | 420 | FMRF-amide (peptide) | EC50 of calcium mobilization (HEK-MrgC11 cells) [1]: 114 nM; EC50 of calcium mobilization (HEK-MrgA1 cells) (MrgA1-GFP (mouse)): 420 nM |
| 544 | 8200 | FMRF-OH (peptide) | fold change of agonist activity against the amidated peptide [1]: 4 to 5 fold; fold decrease in fold change of agonist activity against FMRFa (MrgA1-GFP (mouse)): 20 fold |
|  |  | F-(D)M-R-Fa (peptide) | EC50 of calcium mobilization (HEK-MrgC11 cells) [1]: 11 nM; fold change of agonist activity against FMRFa [1]: 10 fold; EC50 of calcium mobilization (HEK-MrgA1 cells) (MrgA1-GFP (mouse)): 1260 nM; fold decrease in fold change of agonist activity against FMRFa (MrgA1-GFP (mouse)): 3 fold |
| 130 |  | AF-2 (peptide) |  |
| 157 | 402 | FLRF-amide (peptide) | internalization of the receptor-GFP fusion (confocal microscopy, 3 µM FLRFa, 30 min, 37° C.) (MrgA1-GFP (mouse)): > 90 % of cells |
| 16 |  | AnthoRF-amide (peptide) |  |
| 1240 |  | RFRP-1 (peptide) |  |
| 144 |  | PrRP-20 (peptide) |  |
| 11 |  | γ2-MSH (peptide) | internalization of the receptor-GFP fusion (confocal microscopy, 1 µM γ2-MSH, 30 min, 37° C.) [1]: > 90 % of cells |
|  |  | R-F-OH (peptide) | EC50 of calcium mobilization (HEK-MrgC11 cells) [1]: 632 nM |
| 113 |  | RFRP-3 (peptide) |  |
|  |  | F-M-R-(D)Fa (peptide) | EC50 of calcium mobilization (HEK-MrgA1 cells) (MrgA1-GFP (mouse)): 643 nM |
